test system: Escherichia coli TOP10; assay: shrunken log2 fold change of peptide-encoding DNA abundance (4.5 h post-induction vs induction); higher = less antimicrobial activity (less host growth inhibition); settings: time post-induction: 4.5 h; library: site-saturation at positions 5, 18, 19, 20
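Also: peptides expressed intracellularly from a pBAD plasmid library in pooled LB shake-flask culture, induced with 0.3% L-arabinose, DNA abundance read by NGS, three biological replicates, DESeq2 with apeglm shrinkage.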

RRIRPRPPRLPRPRPRPTKMPRP and RRIRVRPPRLPRPRPRPFFGPRP are within 0.2 log units of each other in “shrunken log2 fold change” value: 0.0417 for the first, -0.0414 for the second.

RRIRQRPPRLPRPRPRPKPLPRP and RRIRCRPPRLPRPRPRPGECPRP are within 0.2 log units of each other in “shrunken log2 fold change” value: 0.176 for the first, 0.198 for the second.

RRIRARPPRLPRPRPRPHHLPRP and RRIRIRPPRLPRPRPRPITNPRP are within 0.2 log units of each other in “shrunken log2 fold change” value: -0.313 for the first, -0.176 for the second.

Going from RRIRWRPPRLPRPRPRPKTAPRP to RRIRERPPRLPRPRPRPDQKPRP, the “shrunken log2 fold change” value falls from 0.203 to -0.0097.

Compared with RRIRARPPRLPRPRPRPCNIPRP, RRIRCRPPRLPRPRPRPKANPRP is higher in “shrunken log2 fold change” value: -0.671 for the first, 1.15 for the second.

RRIRARPPRLPRPRPRPWGRPRP and RRIRKRPPRLPRPRPRPSSAPRP are within 0.2 log units of each other in “shrunken log2 fold change” value: 0.198 for the first, 0.214 for the second.

First: RRIRWRPPRLPRPRPRPRQPPRP
Second: RRIRKRPPRLPRPRPRPMTCPRP
The “shrunken log2 fold change” value of the first is higher: 0.743 for the first, 0.0478 for the second.

Going from RRIRWRPPRLPRPRPRPYPGPRP to RRIRFRPPRLPRPRPRPYIDPRP, the “shrunken log2 fold change” value falls from -0.0967 to -0.348.

RRIRARPPRLPRPRPRPVGIPRP and RRIRNRPPRLPRPRPRPREEPRP are within 0.2 log units of each other in “shrunken log2 fold change” value: -0.102 for the first, -0.0547 for the second.

Compared with RRIRNRPPRLPRPRPRPEVSPRP, RRIRARPPRLPRPRPRPICLPRP is higher in “shrunken log2 fold change” value: -0.0183 for the first, 0.425 for the second.

RRIRWRPPRLPRPRPRPKDCPRP and RRIRDRPPRLPRPRPRPEVNPRP are within 0.2 log units of each other in “shrunken log2 fold change” value: -0.0724 for the first, 0.0354 for the second.

First: RRIRLRPPRLPRPRPRPRVIPRP
Second: RRIRARPPRLPRPRPRPPFDPRP
The “shrunken log2 fold change” value of the first is lower: 0.0615 for the first, 0.922 for the second.

RRIRHRPPRLPRPRPRPHKYPRP and RRIRCRPPRLPRPRPRPDIVPRP are within 0.2 log units of each other in “shrunken log2 fold change” value: -0.242 for the first, -0.0875 for the second.

RRIRTRPPRLPRPRPRPCIKPRP and RRIRFRPPRLPRPRPRPSWYPRP are within 0.2 log units of each other in “shrunken log2 fold change” value: -0.476 for the first, -0.401 for the second.

Compared with RRIRPRPPRLPRPRPRPNECPRP, RRIRARPPRLPRPRPRPTGWPRP is higher in “shrunken log2 fold change” value: -0.217 for the first, 0.756 for the second.

First: RRIRRRPPRLPRPRPRPVHMPRP
Second: RRIRDRPPRLPRPRPRPQWVPRP
The “shrunken log2 fold change” value of the first is higher: 2.19 for the first, -0.0468 for the second.

First: RRIRARPPRLPRPRPRPVHCPRP
Second: RRIRVRPPRLPRPRPRPFFNPRP
The “shrunken log2 fold change” value of the first is higher: 0.0301 for the first, -0.32 for the second.

Compared with RRIRDRPPRLPRPRPRPPRQPRP, RRIRYRPPRLPRPRPRPVQLPRP is lower in “shrunken log2 fold change” value: 0.782 for the first, -0.779 for the second.

First: RRIRGRPPRLPRPRPRPPTRPRP
Second: RRIRLRPPRLPRPRPRPLWIPRP
The “shrunken log2 fold change” value of the first is higher: 1 for the first, -0.399 for the second.

RRIRHRPPRLPRPRPRPHSLPRP and RRIRHRPPRLPRPRPRPWDFPRP are within 0.2 log units of each other in “shrunken log2 fold change” value: -0.00992 for the first, -0.0612 for the second.

RRIRNRPPRLPRPRPRPMWFPRP and RRIRNRPPRLPRPRPRPEIIPRP are within 0.2 log units of each other in “shrunken log2 fold change” value: 0.0647 for the first, -0.00607 for the second.

First: RRIRKRPPRLPRPRPRPGDGPRP
Second: RRIRWRPPRLPRPRPRPMRNPRP
The “shrunken log2 fold change” value of the first is higher: 3.56 for the first, 0.315 for the second.

Going from RRIRPRPPRLPRPRPRPYQLPRP to RRIRARPPRLPRPRPRPQRNPRP, the “shrunken log2 fold change” value rises from -0.441 to -0.0146.

Going from RRIRVRPPRLPRPRPRPYARPRP to RRIRQRPPRLPRPRPRPDDNPRP, the “shrunken log2 fold change” value rises from -0.243 to 0.0317.

RRIRQRPPRLPRPRPRPWQRPRP and RRIRYRPPRLPRPRPRPKCCPRP are within 0.2 log units of each other in “shrunken log2 fold change” value: -0.0557 for the first, 0.013 for the second.
